Experimental findings from article PMC3302767 are described below.

Test [1] deals with Plasmodium falciparum formin 1 FH1 and FH2 domains (Pf-Frm1-FH1FH2) (P. falciparum). Kind of test: SEC-MALS; Superdex 200 10/300 GL, 200 µl of each formin at 1 mg/ml; 50 mM sodium phosphate pH 7.0, 50 mM NaCl, 1 mM DTT; monomer to dimer. (In general: Size exclusion chromatography separates by hydrodynamic size, large species first.)
Test [2] addresses Plasmodium falciparum formin 1 FH2 domain with the lasso segment (Pf-Frm1-FH2) (P. falciparum). The description is as above.

With “Plasmodium falciparum formin 1 FH1 and FH2 domains (Pf-Frm1-FH1FH2) (domain or fragment)”, the stoichiometry N in test [1] is 2. “Plasmodium falciparum formin 1 FH2 domain with the lasso segment (Pf-Frm1-FH2) (domain or fragment)” registered a stoichiometry N in test [2] of 2.

The term stoichiometry N denotes the number of molecules, sites or subunits per partner or assembly.
